One block for each binder: values may come before it. Starred links: 1 amine or outer side, 2 acyl side, 3 side chain; linkers in the order of their positions; H or OH if unused. Positions of bridges follow the written chain, without caps; N, C: chain ends. Non-standard residues stand in square brackets, D forms with d. Primed or numbered codes have the meaning given here. *: point of attachment. PyrS2″ = (S)-3-amino-1-((pent-4-en-1-yloxy)carbonyl)pyrrolidine-3-carboxylic acid (stapling residue), C=CCCCOC(=O)N1CC[C@@](N[*:1])(C(=O)[*:2])C1; B5(16) = 2-amino-2-(pent-4-en-1-yl)hept-6-enoic acid = 2,2-bis(4-pentenyl)glycine (stitching residue), C=CCCCC(CCCC=C)(N[*:1])C(=O)[*:2]; B5(4) = 2,2-bis(4-pentenyl)glycine = 2-amino-2-(pent-4-en-1-yl)hept-6-enoic acid (stitching residue), C=CCCCC(CCCC=C)(N[*:1])C(=O)[*:2]; PyrS2 = (S)-3-amino-1-((pent-4-en-1-yloxy)carbonyl)pyrrolidine-3-carboxylic acid, C=CCCCOC(=O)N1CC[C@@](N[*:1])(C(=O)[*:2])C1; B5(19) = 2-amino-2-(pent-4-en-1-yl)hept-6-enoic acid (bis(4-pentenyl)glycine), C=CCCCC(CCCC=C)(N[*:1])C(=O)[*:2]; MePpzAsn = (S)-2-amino-4-(4-methylpiperazin-1-yl)-4-oxobutanoic acid, CN1CCN(C(=O)C[C@H](N[*:1])C(=O)[*:2])CC1; B5(3) = 2,2-bis(4-pentenyl)glycine (stitching residue), C=CCCCC(CCCC=C)(N[*:1])C(=O)[*:2]; Phe(3-COOH) = N[C@@H](Cc1cccc(C(=O)O)c1)C(=O)O; 2F3MeF = Cc1cccc(C[C@H](N[*:1])C(=O)[*:2])c1F; Bta = N[C@@H](Cc1csc2ccccc12)C(=O)O; αAllylPro = C=CC[C@@]1(C(=O)O)CCCN1; tBuAla = CC(C)(C)C[C@H](N)C(=O)O; 3Thi = N[C@@H](Cc1ccsc1)C(=O)O; Cit = NC(=O)NCCC[C@H](N)C(=O)O; S8 = C=CCCCCCC[C@](C)(N)C(=O)O; Thr(ol) = C[C@@H](O)[C@H](N)CO; iPr = CC(C)*
Key:
[1] = target: T1, B-cat-Halo (beta-catenin HaloTag construct expressed in HEK293 cells) (UniProt P35222 1-781, HaloTag NanoBRET 618 Ligand bound in the assay); assay: NanoBRET Abs IC50 in HEK293 cells; B-cat-Halo with competitor TCF4-Luc
T1 construct: Transfected NanoBRET construct; not shown: HaloTag
T1 sequence (looked up): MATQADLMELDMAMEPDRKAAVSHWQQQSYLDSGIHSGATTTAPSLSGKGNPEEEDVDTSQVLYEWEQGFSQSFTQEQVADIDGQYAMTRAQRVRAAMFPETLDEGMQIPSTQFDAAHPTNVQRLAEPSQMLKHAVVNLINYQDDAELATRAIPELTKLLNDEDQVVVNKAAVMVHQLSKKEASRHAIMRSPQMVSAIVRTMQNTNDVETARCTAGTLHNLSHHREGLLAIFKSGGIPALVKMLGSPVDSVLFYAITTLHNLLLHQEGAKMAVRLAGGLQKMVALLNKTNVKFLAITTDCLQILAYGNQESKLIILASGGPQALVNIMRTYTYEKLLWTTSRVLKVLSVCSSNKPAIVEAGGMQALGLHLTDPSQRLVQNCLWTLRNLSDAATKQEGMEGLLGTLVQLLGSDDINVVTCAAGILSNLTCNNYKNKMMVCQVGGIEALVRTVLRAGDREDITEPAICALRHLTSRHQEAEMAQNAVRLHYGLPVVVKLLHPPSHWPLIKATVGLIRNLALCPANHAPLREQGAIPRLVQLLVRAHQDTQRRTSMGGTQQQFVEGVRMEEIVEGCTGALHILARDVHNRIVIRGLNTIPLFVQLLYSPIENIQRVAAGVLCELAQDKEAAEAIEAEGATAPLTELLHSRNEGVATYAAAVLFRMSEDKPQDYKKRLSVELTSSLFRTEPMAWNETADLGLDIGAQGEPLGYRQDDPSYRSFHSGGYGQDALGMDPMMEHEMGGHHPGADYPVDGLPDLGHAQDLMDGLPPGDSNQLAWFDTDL

[2] = target: T2, full-length beta-Catenin (Uniprot ID P35222) (Homo sapiens (Human), UniProt P35222 2-781); assay: fluorescence polarization competition; full-length beta-catenin, competitor 5FAM-TCF4 10-53 probe
T2 construct: Given as 'full-length beta-Catenin (Uniprot ID P35222)' in the fluorescence polarization protocol; also called bCat; B-Catenin
T2 sequence: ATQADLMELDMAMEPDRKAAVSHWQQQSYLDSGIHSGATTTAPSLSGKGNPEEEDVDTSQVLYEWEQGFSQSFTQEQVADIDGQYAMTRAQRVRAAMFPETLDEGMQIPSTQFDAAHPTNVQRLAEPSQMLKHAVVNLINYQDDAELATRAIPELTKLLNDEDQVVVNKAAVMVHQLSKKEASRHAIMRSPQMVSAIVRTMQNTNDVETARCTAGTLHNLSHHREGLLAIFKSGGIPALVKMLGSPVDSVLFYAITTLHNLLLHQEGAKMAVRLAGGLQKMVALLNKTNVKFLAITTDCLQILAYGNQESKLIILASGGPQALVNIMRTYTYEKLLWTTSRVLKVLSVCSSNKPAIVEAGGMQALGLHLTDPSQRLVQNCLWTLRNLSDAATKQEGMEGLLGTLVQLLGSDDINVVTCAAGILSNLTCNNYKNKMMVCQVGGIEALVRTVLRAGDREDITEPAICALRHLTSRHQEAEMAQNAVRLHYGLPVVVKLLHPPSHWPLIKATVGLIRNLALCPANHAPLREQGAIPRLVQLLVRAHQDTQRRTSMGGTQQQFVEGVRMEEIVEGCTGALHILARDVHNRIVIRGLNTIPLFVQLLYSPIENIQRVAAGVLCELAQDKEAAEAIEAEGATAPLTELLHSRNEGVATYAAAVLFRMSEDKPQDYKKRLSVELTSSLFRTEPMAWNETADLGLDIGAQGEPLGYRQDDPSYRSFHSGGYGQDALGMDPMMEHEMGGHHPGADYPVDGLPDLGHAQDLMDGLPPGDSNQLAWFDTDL
Description: (§1) The plate was incubated protected from light for 60 minutes at 20° C. prior to read. Reads were performed on a CLARIOstar plate reader (BMG Labtech) in duplicate, and data were fitted to a 1:1 binding model with hill slope using an in-house script. All provided concentrations are final concentrations.

B-cat-Halo [3] = target: T3, B-cat-Halo (UniProt P35222 1-781); assay: cell-based or functional assay
T3 sequence (looked up): T1 sequence (looked up)

B-cat-Halo [4] = target: T4, B-cat-Halo (UniProt P35222 1-781); assay: cell-based or functional assay; remark: listed apart in the source
T4 sequence (looked up): T1 sequence (looked up)

[5] = target: T5, beta-catenin (in DLD1 TCF/LEF luciferase reporter cells) (UniProt P35222 1-781); assay: cell-based or functional assay
T5 sequence (looked up): T1 sequence (looked up)

[6] = target: T6, full-length beta-Catenin (Uniprot ID P35222) (Homo sapiens (Human), UniProt P35222 2-781); assay: fluorescence polarization competition; 10 nM full-length beta-catenin, 10 nM 5FAM-TCF4(10-53) probe
T6 construct: The FP assay uses 10 nM 'full-length beta-Catenin (Uniprot ID P35222)'; also called bCat; B-Catenin
T6 sequence: T2 sequence
Description: as §1

B-cat-Halo [7] = target: T7, B-cat-Halo (UniProt P35222 1-781); assay: cell-based or functional assay; remark: listed apart in the source
T7 sequence (looked up): T1 sequence (looked up)

[8] = target: T8, beta-catenin (endogenous, DLD1 TCF/LEF luciferase reporter cells) (UniProt P35222 1-781); assay: cell-based or functional assay
T8 sequence (looked up): T1 sequence (looked up)

B-cat-Halo [9] = target: T9, B-cat-Halo (UniProt P35222 1-781, HaloTag NanoBRET 618 Ligand bound to the HaloTag in the assay); assay: NanoBRET absolute IC50 in HEK293 cells; Bcat-Halo, competitor TCF4-Luc
T9 construct: Transfected into HEK293 cells for the NanoBRET assay; intracellular; also called beta-catenin HaloTag fusion; not shown: HaloTag
T9 sequence (looked up): T1 sequence (looked up)

[10] = target: T10, full-length beta-Catenin (Uniprot ID P35222) (Homo sapiens (Human), UniProt P35222 1-781); assay: fluorescence polarization competition; full-length beta-catenin, competitor 5FAM-TCF4(10-53) probe
T10 construct: Tags of the recombinant protein are not described for the FP assay; also called bCat; B-Catenin
T10 sequence: T1 sequence (looked up)
Method in brief: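 Fluorescence polarization was read in duplicate after the plate sat 60 minutes at 20° C. shielded from light. Values come from fitting to a 1:1 binding model with hill slope.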

[11] = target: T11, full-length beta-Catenin (Uniprot ID P35222) (Homo sapiens (Human), UniProt P35222 1-781); assay: fluorescence polarization competition; 10 nM full-length beta-catenin with 10 nM 5FAM-labeled TCF4 (residues 10-53) probe as competitor
T11 construct: The assay text says 'full-length beta-Catenin (Uniprot ID P35222)'; No tags are stated for the FP assay; also called bCat; B-Catenin
T11 sequence: T1 sequence (looked up)
Description: as §1

IC50 [1]: 27.1 µM
IC50 [2]: 0.009 µM
Binder: Ac-[αAllylPro]DL[B5(19)]DDAAFL[PyrS2]F[Bta]Q-NH2 (staple 1-4, 4-11) [I-1402]

NanoBRET Abs IC50 (B-cat-Halo [3]): 30 µM
B1: I-629 (peptide)
peptide: Ac-[αAllylPro]DL[B5(16)]DEAAF[Cit][S8]F[Bta]-NH2
modifications: staple 1-4, 4-11; not fully specified; printed as Ac-PL3-Asp-Leu-B5-Asp-Glu-Ala-Ala-Phe-Cit-S8-Phe-BztA-NH2

NanoBRET Abs IC50 (uM); B-cat-Halo / TCF4-Luc in HEK293 cells (B-cat-Halo [4]): 21.4 µM
DLD1 4% Abs IC50 (uM); TCF/LEF luciferase reporter in DLD1 cells [5]: 4 µM
Binder: Ac-[αAllylPro]D[tBuAla][B5(4)]DDAAFL[PyrS2][3Thi][Bta][Thr(ol)] (staple 1-4, 4-11) [I-1302]

IC50 [6]: 2.35 µM
B2: I-1647 (peptide)
peptide: Ac-[αAllylPro]NY[B5(16)]DQK(iPr)AFL[PyrS2]F[Bta]Q-NH2
modifications: staple 1-4, 4-11
notes: Stapled peptide; also called Ac-PL3-Asn-Tyr-B5-Asp-Gln-iPrLys-Ala-Phe-Leu-PyrS2-Phe-BztA-Gln-NH2

NanoBRET Abs IC50 (B-cat-Halo [7]): 5.3 µM
DLD1 4% Abs IC50 [8]: 4 µM
Binder: Ac-[αAllylPro]D[tBuAla][B5(3)]D[Phe(3-COOH)]AAFL[PyrS2″][2F3MeF][Bta][MePpzAsn]-NH2 (staple 1-4, 4-11) [I-1612]

IC50 (B-cat-Halo [9]): 18.1 µM
IC50 [10]: 0.026 µM
Binder: Ac-[αAllylPro]DL[B5(4)]DEAAFQ[S8]F[Bta]Q-NH2 (staple 1-4, 4-11) [I-1458]

IC50 [11]: 1.96 µM
B3: I-217 (peptide)
peptide: Ac-[αAllylPro]DA[B5(4)]DEAAXV[S8]FWQ-NH2
modifications: staple 1-4, 4-11; not fully specified (residue 9); printed as Ac-PL3-Asp-Ala-B5-Asp-Glu-Ala-Ala-MeTyr-Val-S8-Phe-Trp-Gln-NH2
notes: Stapled (stitched) peptide; also called Ac-PL3-Asp-Ala-B5-Asp-Glu-Ala-Ala-MeTyr-Val-S8-Phe-Trp-Gln-NH2

— US20240116985A1 (published 2024)
